The results in this text go back to IntAct's records for PubMed 20847002.

B1: Probable peptidoglycan glycosyltransferase FtsW (Escherichia coli (strain K12)), P0ABG4 (parent)
chain: MRLSLPRLKMPRLPGFSILVWISTALKGWVMGSREKDTDSLIMYDRTLLWLTFGLAAIGFIMVTSASMPIGQRLTNDPFFFAKRDGVYLILAFILAIITLRLPMEFWQRYSATMLLGSIILLMIVLVVGSSVKGASRWIDLGLLRIQPAELTKLSLFCYIANYLVRKGDEVRNNLRGFLKPMGVILVLAVLLLAQPDLGTVVVLFVTTLAMLFLAGAKLWQFIAIIGMGISAVVLLILAEPYRIRRVTAFWNPWEDPFGSGYQLTQSLMAFGRGELWGQGLGNSVQKLEYLPEAHTDFIFAIIGEELGYVGVVLALLMVFFVAFRAMSIGRKALEIDHRFSGFLACSIGIWFSFQALVNVGAAAGMLPTKGLTLPLISYGGSSLLIMSTAIMMLLRIDYETRLEKAQAFVRGSR
partner: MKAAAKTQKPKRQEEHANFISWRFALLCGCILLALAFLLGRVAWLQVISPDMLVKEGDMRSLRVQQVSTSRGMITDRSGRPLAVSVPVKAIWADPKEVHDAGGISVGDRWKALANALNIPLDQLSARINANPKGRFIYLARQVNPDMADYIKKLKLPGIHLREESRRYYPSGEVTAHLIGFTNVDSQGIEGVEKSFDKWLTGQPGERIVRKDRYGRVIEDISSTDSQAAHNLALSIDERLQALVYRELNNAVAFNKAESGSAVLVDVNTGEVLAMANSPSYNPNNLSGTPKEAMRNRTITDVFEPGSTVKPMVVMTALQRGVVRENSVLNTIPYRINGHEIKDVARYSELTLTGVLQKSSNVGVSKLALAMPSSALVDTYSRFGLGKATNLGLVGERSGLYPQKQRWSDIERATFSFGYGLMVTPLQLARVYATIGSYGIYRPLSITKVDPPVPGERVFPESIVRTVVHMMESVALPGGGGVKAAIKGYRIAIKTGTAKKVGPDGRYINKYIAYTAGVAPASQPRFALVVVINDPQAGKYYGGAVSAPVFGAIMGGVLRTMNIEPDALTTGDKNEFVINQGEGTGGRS
B2: Peptidoglycan D,D-transpeptidase FtsI (Escherichia coli (strain K12)), P0AD68 (parent)
chain: B1 partner
partner: B1 chain
B3: Probable peptidoglycan glycosyltransferase FtsW (Escherichia coli (strain K12)), P0ABG4 (parent)
chain: B1 chain
partner: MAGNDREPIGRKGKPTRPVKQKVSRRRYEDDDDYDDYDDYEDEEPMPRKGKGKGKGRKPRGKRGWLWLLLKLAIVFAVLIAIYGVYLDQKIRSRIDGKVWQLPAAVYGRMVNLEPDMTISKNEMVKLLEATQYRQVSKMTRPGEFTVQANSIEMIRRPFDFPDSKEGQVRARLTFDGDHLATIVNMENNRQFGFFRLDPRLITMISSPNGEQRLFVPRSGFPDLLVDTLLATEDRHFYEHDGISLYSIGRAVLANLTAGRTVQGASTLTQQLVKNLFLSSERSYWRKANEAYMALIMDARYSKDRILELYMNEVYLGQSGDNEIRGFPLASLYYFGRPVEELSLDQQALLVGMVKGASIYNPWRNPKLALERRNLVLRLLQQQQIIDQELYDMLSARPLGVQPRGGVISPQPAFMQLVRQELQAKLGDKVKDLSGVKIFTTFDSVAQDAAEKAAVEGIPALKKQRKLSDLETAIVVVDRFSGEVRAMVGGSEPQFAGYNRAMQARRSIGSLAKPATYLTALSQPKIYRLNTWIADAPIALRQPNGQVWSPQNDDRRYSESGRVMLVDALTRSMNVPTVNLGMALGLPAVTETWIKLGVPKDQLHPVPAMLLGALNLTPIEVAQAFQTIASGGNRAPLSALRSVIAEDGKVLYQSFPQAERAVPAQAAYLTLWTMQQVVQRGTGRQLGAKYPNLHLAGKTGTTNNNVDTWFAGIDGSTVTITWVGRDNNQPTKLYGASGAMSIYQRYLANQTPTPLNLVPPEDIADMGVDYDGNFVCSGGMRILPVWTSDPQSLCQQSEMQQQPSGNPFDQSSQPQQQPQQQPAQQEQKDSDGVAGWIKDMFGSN

Variants of B1 are the subject of one assay. To be noted: with ftsi_ecoli ftsI.
As to P375A, the “effect of a mutation on the interaction” value is reported as “decreasing interaction”.
Still for that read-out and setting: for P368A the value was “decreasing interaction”.

In a further assay the parent is B2. Particulars: with ftsw_ecoli ftsW.
Consider R23C, for which the “effect of a mutation on the interaction” value is recorded as “decreasing interaction strength”.

Variants of B3 are the subject of another assay. Particulars: with pbpb_ecoli mrcB.
For the variant P368A, the “effect of a mutation on the interaction” value is “decreasing interaction”.
Same read-out and setting: for P375A the value was “decreasing interaction”.
